Experimental findings from publication PMC8134492 are described below.

The experiment deals with MS2-Biotin, biotinylated single-chain MS2 coat protein dimer with an AviTag in a surface loop of the second monomer (bacteriophage MS2). Briefly: SEC. On the technique in general: Size exclusion chromatography separates by hydrodynamic size, large species first.

“streptavidin (from UniProt P22629 25-183) (natural protein)” gave a stoichiometry N (streptavidin molecules per VLP) of 72.
